T1: human 4Ig-B7-H3 expressed on transduced cells (human, UniProt Q5ZPR3 29-534)
T1 construct: also called isoform 1; Jurkat-B7H3
T1 sequence: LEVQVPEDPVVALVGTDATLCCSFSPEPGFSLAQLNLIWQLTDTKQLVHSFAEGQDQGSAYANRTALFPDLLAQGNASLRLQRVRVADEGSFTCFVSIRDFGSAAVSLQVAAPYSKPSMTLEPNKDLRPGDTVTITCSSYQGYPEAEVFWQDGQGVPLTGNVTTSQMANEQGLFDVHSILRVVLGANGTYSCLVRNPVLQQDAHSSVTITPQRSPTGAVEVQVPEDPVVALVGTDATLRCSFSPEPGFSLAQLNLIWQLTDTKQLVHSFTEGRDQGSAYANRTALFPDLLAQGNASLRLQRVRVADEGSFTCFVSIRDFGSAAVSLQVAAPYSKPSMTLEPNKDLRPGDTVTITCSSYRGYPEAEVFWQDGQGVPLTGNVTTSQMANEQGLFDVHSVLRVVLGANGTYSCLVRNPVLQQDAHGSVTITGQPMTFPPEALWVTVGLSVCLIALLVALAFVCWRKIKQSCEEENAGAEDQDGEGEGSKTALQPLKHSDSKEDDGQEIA

T2: human B7H3 expressed on cell surface (human, UniProt Q5ZPR3 29-534)
T2 construct: whole, on cells; also called B7-H3 on LAN-1, Kelly, IMR-32 and other B7-H3 positive target cell lines
T2 sequence (looked up): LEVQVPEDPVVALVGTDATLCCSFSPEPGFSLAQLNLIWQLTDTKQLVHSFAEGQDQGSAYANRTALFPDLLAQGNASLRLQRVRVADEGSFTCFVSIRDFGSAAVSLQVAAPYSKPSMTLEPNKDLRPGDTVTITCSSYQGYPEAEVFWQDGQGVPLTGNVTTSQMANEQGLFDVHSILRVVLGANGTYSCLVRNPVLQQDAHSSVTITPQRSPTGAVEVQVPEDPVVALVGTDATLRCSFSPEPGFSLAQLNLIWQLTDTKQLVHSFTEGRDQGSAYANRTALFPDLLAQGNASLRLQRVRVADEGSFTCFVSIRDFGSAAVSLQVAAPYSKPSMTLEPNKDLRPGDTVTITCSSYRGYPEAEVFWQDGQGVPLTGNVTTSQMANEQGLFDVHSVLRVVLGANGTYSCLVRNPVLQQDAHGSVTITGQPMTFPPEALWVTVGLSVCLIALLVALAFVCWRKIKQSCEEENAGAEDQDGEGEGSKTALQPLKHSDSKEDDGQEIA

T3: recombinant mouse B7-H3 (plate bound) (mouse, UniProt Q8VE98 29-244, limits assumed)
T3 sequence (looked up): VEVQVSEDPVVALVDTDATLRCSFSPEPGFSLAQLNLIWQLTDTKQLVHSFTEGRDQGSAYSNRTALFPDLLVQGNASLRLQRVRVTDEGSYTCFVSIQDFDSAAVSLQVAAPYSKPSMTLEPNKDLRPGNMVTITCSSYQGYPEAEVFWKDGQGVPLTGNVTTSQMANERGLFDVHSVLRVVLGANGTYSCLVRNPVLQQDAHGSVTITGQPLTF

T4: mouse B7-H3 on the mouse cell line 3T3/NA1 (mouse, UniProt Q8VE98 29-316)
T4 construct: whole, on cells
T4 sequence (looked up): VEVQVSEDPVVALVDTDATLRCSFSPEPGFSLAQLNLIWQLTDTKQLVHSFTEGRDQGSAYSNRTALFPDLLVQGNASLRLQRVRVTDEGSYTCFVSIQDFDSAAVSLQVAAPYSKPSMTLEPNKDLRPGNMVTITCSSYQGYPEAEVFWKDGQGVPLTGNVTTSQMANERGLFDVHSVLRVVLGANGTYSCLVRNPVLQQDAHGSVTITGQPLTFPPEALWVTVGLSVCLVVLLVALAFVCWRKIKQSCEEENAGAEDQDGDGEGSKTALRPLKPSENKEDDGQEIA


What was measured:
[1] = target: T1, human 4Ig-B7-H3 expressed on transduced …; test: flow cytometry, scFv-Fc on Jurkat cells transduced with B7-H3 isoforms (FIG. 2D)
[2] = target: T2, human B7H3 expressed on cell surface; test: flow cytometry, chimeric IgG1 and anti-human secondary on neuroblastoma lines and B7-H3 positive Jurkat lines (FIG. 6)
Description: FIG. 6—Chimeric antibodies derived from TE9 and BH6 show specificity for human B7H3 expressed on cell surface. TE9 and BH6 ScFv that had been cloned into full human IgG1 antibodies were used in staining experiments. A. Chimeric human IgG1 full antibodies derived from TE9 and BH6 ScFvs were used to stain 3 neuroblastoma cell lines, LAN-1, Kelly and IMR-32. […] B. Chimeric antibodies TE9 and BH6 were used to stain the 3 B7-H3 positive Jurkat cell lines, 4Ig-B7-H3, 2Ig-B7-H3 and T-B7-H3 (see FIG. 2)

[3] = target: T3, recombinant mouse B7-H3 (plate bound); test: binding ELISA with immobilised recombinant protein (FIG. 28C)
Procedure: (§1) TC6, TF9 and BH6 were produced as chimeric antibodies with a human IgG1 Fc domain. Antibodies were purified on protein A columns (Cytiva) and were tested in ELISA against plate bound antigen, with detection using goat anti-human IgG (H+L) (SeraCare). Cross reactivity against mouse B7-H3 was tested using flow cytometry against the mouse cell line 3T3/NA1.

[4] = target: T4, mouse B7-H3 on the mouse cell line …; test: flow cytometry on the mouse cell line 3T3/NA1 (FIG. 5A)
Procedure: as §1

Binder	binding result [1]	also measured
BF9 scFv-Fc fusion protein (Fc fusion, not shown: Fc of the scFv-Fc fusion, and any hinge or junction to it) scFv: QVKLQQSGAELVKPGASVKLSCKASGYTFTSYWVHWVKQRPGQGLEWIGMIHPKSGSADYNEKFTTKATLTADKSSSTAYMQLSSLTSEDSAVYYCARGGYGSPFDYWGQGTTVTVSSGGGGSGGGGSGGGGSENVLTQSPAIMSASPGEKVTMTCSASSSVSYMYWYQQKPGSSPRLLIYDTSNLASGAPVRFSGRGSGTSYSLTISSMEAEDAATYYCQQWSNNPLTFGAGTKLELK	binds	–
TE9 chimeric human IgG1 full antibody (antibody, V domains shown, Chimeric antibody, mouse variable domains cloned into full human IgG1; also called TE9 antibody; TE9 whole antibody) VH: QVQLQQSGAALVKPGTSVKLSCKASGYTFTSYWMHWVKQRPGQGLEWIGMIHPKSGSVDYNEKFTNKATLTGDKSSGTAYMQLSSLTSEDSAVYYCARGGYGSPFDYWGQGTTVTVSS VL: ENVLTQSPAIMSASPGEKVTMTCSASSSVSYMYWYQQKPGSSPRLLIYRTSNLASGVPARFSGSGSGTSYSLTISSMEAEDAATYYCQQWSSNPPTFGGGTKLEIK	–	binding result [2]: binds; binding result [3]: no binding
TC6 scFv-Fc fusion protein (Fc fusion, not shown: a dimerising Fc or GST; small tags and cut ends) scFv: QVKLQESGAELVKPGASVKLSCKASGYTFTSYWIHWVKQRPGQGLEWIGMIHPKSGSINYNEKFRSKATLTVDKSSSTAYMQLSRLTSEDSAVYFCASGGYGSSLDYWGQGTTVTVSSGGGGSGGGGSGGGGSQIVLTQSPAIMSASPGEKVTMTCSASSSVSYMYWYQQKPRSSPISWIYLTSNLASGVPARFSGSGSGTSYSLTISSMEAEDAATYYCQQWSSDPLTFGAGTKLELK	binds	–
BH6 chimeric human IgG1 full antibody (antibody, V domains shown, Chimeric antibody with a human IgG1 Fc domain; also called BH6 antibody) VH: QVKLQQSGADLVKPGASVKLSCKASGYTFTSYWMHWVKQRPGQGLEWIGMIHPNSDGTNYNEKFKNRATLTVDKSSSTAYMQLNSLTSEDSAVYYCARWSYGMDSWGQGTTVTVSS VL: DIVLTQSPASLAVSLGQRATITCSASSSVSYMHWYQQKSGTSPKRWIYDTSKLASGVPARFSGSGSGTSYSLTISSMEAEDAATYYCQQWSRNPLTFGAGTKLEIK	–	binding result [2]: binds; binding result [4]: binds

More lines, main results first:

binding result [1]	Binder	also measured
binds	BH6 scFv-Fc fusion protein (Fc fusion, not shown: a dimerising Fc or GST; small tags and cut ends) scFv: QVKLQQSGADLVKPGASVKLSCKASGYTFTSYWMHWVKQRPGQGLEWIGMIHPNSDGTNYNEKFKNRATLTVDKSSSTAYMQLNSLTSEDSAVYYCARWSYGMDSWGQGTTVTVSSGGGGSGGGGSGGGGSDIVLTQSPASLAVSLGQRATITCSASSSVSYMHWYQQKSGTSPKRWIYDTSKLASGVPARFSGSGSGTSYSLTISSMEAEDAATYYCQQWSRNPLTFGAGTKLEIK	–
binds	TF9 scFv-Fc fusion protein (Fc fusion, not shown: Fc of the scFv-Fc fusion, and any hinge or junction to it) scFv: QVKLQESGAELVKPGASVKLSCKASGYTFTSYWIHWVKQRPGQGLEWIGMIHPKSGSINYNEKFRSKATLTVDKSSSTAYMQLSRLTSEDSAVYFCASGGYGSSLDYWGQGTTVTVSSGGGGSGGGGSGGGGSENVLTQSPAIMSASPGEKVTISCSASSSVSYVYWYQQKPGSSPKPWIYRTSNLASGVPARFSGSGSGTSYSLTISSMEAEDAATYYCQQWSSNPLTFGAGTKLELK	–
binds	TE9 scFv-Fc fusion protein (Fc fusion, not shown: a dimerising Fc or GST; small tags and cut ends) scFv: QVQLQQSGAALVKPGTSVKLSCKASGYTFTSYWMHWVKQRPGQGLEWIGMIHPKSGSVDYNEKFTNKATLTGDKSSGTAYMQLSSLTSEDSAVYYCARGGYGSPFDYWGQGTTVTVSSGGGGSGGGGSGGGGSENVLTQSPAIMSASPGEKVTMTCSASSSVSYMYWYQQKPGSSPRLLIYRTSNLASGVPARFSGSGSGTSYSLTISSMEAEDAATYYCQQWSSNPPTFGGGTKLEIK	–

Source: patent US20250382369A1 (UCL BUSINESS, published 2025)
